In PMC7568260, “In vitro reconstitution and characterization of pyruvate dehydrogenase and 2‐oxoglutarate dehydrogenase hybrid complex from Corynebacterium glutamicum” (MicrobiologyOpen, 2020):
Blank lines part the entries; values can stand above or below the molecule they belong to.

Experiments:
[1] = molecular target: CgE1o (thiamine diphosphate-dependent 2-oxoglutarate dehydrogenase, OdhA), C-terminal His-tagged (Corynebacterium glutamicum) (UniProt Q8NRC3); test: SEC; HiLoad 26/600 Superdex 200 pg or Superose 6 10/300 GL column, TESG10N buffer; mixtures incubated on ice for 30 min before the run; masses estimated against size standards; fractions read by SDS-PAGE (CBB) or Western blot
[2] = molecular target: CgE2-E3 subcomplex (Corynebacterium glutamicum) (UniProt Q8NNJ2)
[3] = molecular target: CgE1p (thiamine diphosphate-dependent pyruvate dehydrogenase, AceE), C-terminal His- and Flag-tagged (Corynebacterium glutamicum) (UniProt Q8NNF6); test: SEC; HiLoad 26/600 Superdex 200 pg or Superose 6 10/300 GL column, TESG10N buffer; mixtures incubated on ice for 30 min before the run; masses estimated against size standards; fractions read by SDS-PAGE (CBB) or Western blot
purified protein [4] = substrate: O=C(O)CCC(=O)C(=O)O; test: purified protein; format: biochemical, Corynebacterium glutamicum; settings: 0.2 mM CoA, 0.3 mM thiamine pyrophosphate, 3 mM L-cysteine, 5 mM MgCl2, 1 mM APAD+ (NAD+ analogue), TES-NaOH pH 7.6, 30 °C, CgE1o 20 μg with CgE2-E3 15 μg
purified protein [5] = substrate: CC(=O)C(=O)O; test: purified protein; format: biochemical, Corynebacterium glutamicum; settings: 0.2 mM CoA, 0.3 mM thiamine pyrophosphate, 3 mM L-cysteine, 5 mM MgCl2, 1 mM APAD+ (NAD+ analogue), TES-NaOH pH 7.6, 30 °C, CgE1p 15 μg with CgE2-E3 15 μg

B1: reconstituted ODH complex (CgE1o with CgE2‐E3) (Corynebacterium glutamicum ATCC 13032) (protein)
chain: SSASTFGQNAWLVDEMFQQFQKDPKSVDKEWRELFEAQGGPNTTPATTEAQPSAPKESAKPAPKAAPAAKAAPRVETKPADKTAPKAKESSVPQQPKLPEPGQTPIRGIFKSIAKNMDISLEIPTATSVRDMPARLMFENRAMVNDQLKRTRGGKISFTHIIGYAMVKAVMAHPDMNNSYDVIDGKPTLIVPEHINLGLAIDLPQKDGSRALVVAAIKETEKMNFSEFLAAYEDIVARSRKGKLTMDDYQGVTVSLTNPGGIGTRHSVPRLTKGQGTIIGVGSMDYPAEFQGASEDRLAELGVGKLVTITSTYDHRVIQGAVSGEFLRTMSRLLTDDSFWDEIFDAMNVPYTPMRWAQDVPNTGVDKNTRVMQLIEAYRSRGHLIADTNPLSWVQPGMPVPDHRDLDIETHNLTIWDLDRTFNVGGFGGKETMTLREVLSRLRAAYTLKVGSEYTHILDRDERTWLQDRLEAGMPKPTQAEQKYILQKLNAAEAFENFLQTKYVGQKRFSLEGAEALIPLMDSAIDTAAGQGLDEVVIGMPHRGRLNVLFNIVGKPLASIFNEFEGQMEQGQIGGSGDVKYHLGSEGQHLQMFGDGEIKVSLTANPSHLEAVNPVMEGIVRAKQDYLDKGVDGKTVVPLLLHGDAAFAGLGIVPETINLAKLRGYDVGGTIHIVVNNQIGFTTTPDSSRSMHYATDYAKAFGCPVFHVNGDDPEAVVWVGQLATEYRRRFGKDVFIDLVCYRLRGHNEADDPSMTQPKMYELITGRETVRAQYTEDLLGRGDLSNEDAEAVVRDFHDQMESVFNEVKEGGKKQAEAQTGITGSQKLPHGLETNISREELLELGQAFANTPEGFNYHPRVAPVAKKRVSSVTEGGIDWAWGELLAFGSLANSGRLVRLAGEDSRRGTFTQRHAVAIDPATAEEFNPLHELAQSKGNNGKFLVYNSALTEYAGMGFEYGYSVGNEDSIVAWEAQFGDFANGAQTIIDEYVSSGEAKWGQTSKLILLLPHGYEGQGPDHSSARIERFLQLCAEGSMTVAQPSTPANHFHLLRRHALSDLKRPLVIFTPKSMLRNKAAASAPEDFTEVTKFQSVINDPNVADAAKVKKVMLVSGKLYYELAKRKEKDGRDDIAIVRIEMLHPIPFNRISEALAGYPNAEEVLFVQDEPANQGPWPFYQEHLPELIPNMPKMRRVSRRAQSSTATGVAKVHQLEEKQLIDEAFEA
notes: CgE1o C-terminal His tag, pAA62, 134,664 Da, mainly hexamer alone; CgE2 (70,905 Da, lipoylated) co-expressed with N-terminal His/Flag CgE3 (50,652 Da), pKH13; E. coli BL21-CodonPlus (DE3); tags not cut; gel-filtration purified; complex about 940 kDa; with Dihydrolipoamide acetyltransferase component of pyruvate dehydrogenase complex (E2); Dihydrolipoyl dehydrogenase (E3)
Km (purified protein [4]): 0.010 ± 0.001 mM

B2: reconstituted PDH complex (CgE1p with CgE2‐E3) (Corynebacterium glutamicum ATCC 13032) (protein)
chain: MADQAKLGGKPSDDSNFAMIRDGVASYLNDSDPEETNEWMDSLDGLLQESSPERARYLMLRLLERASAKRVSLPPMTSTDYVNTIPTSMEPEFPGDEEMEKRYRRWIRWNAAIMVHRAQRPGIGVGGHISTYAGAAPLYEVGFNHFFRGKDHPGGGDQIFFQGHASPGMYARAFMEGRLSEDDLDGFRQEVSREQGGIPSYPHPHGMKDFWEFPTVSMGLGPMDAIYQARFNRYLENRGIKDTSDQHVWAFLGDGEMDEPESRGLIQQAALNNLDNLTFVVNCNLQRLDGPVRGNTKIIQELESFFRGAGWSVIKVVWGREWDELLEKDQDGALVEIMNNTSDGDYQTFKANDGAYVREHFFGRDPRTAKLVENMTDEEIWKLPRGGHDYRKVYAAYKRALETKDRPTVILAHTIKGYGLGHNFEGRNATHQMKKLTLDDLKLFRDKQGIPITDEQLEKDPYLPPYYHPGEDAPEIKYMKERRAALGGYLPERRENYDPIQVPPLDKLRSVRKGSGKQQIATTMATVRTFKELMRDKGLADRLVPIIPDEARTFGLDSWFPTLKIYNPHGQNYVPVDHDLMLSYREAPEGQILHEGINEAGSVASFIAAGTSYATHGKAMIPLYIFYSMFGFQRTGDSIWAAADQMARGFLLGATAGRTTLTGEGLQHMDGHSPVLASTNEGVETYDPSFAYEIAHLVHRGIDRMYGPGKGEDVIYYITIYNEPTPQPAEPEGLDVEGLHKGIYLYSRGEGTGHEANILASGVGMQWALKAASILEADYGVRANIYSATSWVNLARDGAARNKAQLRNPGADAGEAFVTTQLKQTSGPYVAVSDFSTDLPNQIREWVPGDYTVLGADGFGFSDTRPAARRFFNIDAESIVVAVLNSLAREGKIDVSVAAQAAEKFKLDDPTSVSVDPNAPEE
notes: CgE1p C-terminal His (and Flag) tag, pKH4, 102,826 Da, dimer in solution; CgE2 (70,905 Da, lipoylated) co-expressed with N-terminal His/Flag CgE3 (50,652 Da), pKH13; E. coli BL21-CodonPlus (DE3); tags not cut; gel-filtration purified; with Dihydrolipoamide acetyltransferase component of pyruvate dehydrogenase complex (E2); Dihydrolipoyl dehydrogenase (E3)
Km (purified protein [5]): 3.5 ± 0.2 mM

The remaining lines, values ahead:

stoichiometry N [1]: 6
Molecule: CgE1o (thiamine diphosphate-dependent 2-oxoglutarate dehydrogenase, OdhA), C-terminal His-tagged (from UniProt Q8NRC3 1-1221) (enzyme)

PDH activity against the amount of CgE1p (37, 150, 300, 600 pmol) with a fixed amount of CgE2-E3 (18 pmol) [2]: 150 pmol | stoichiometry N [3]: 2
Molecule: CgE1p (thiamine diphosphate-dependent pyruvate dehydrogenase, AceE), C-terminal His- and Flag-tagged (from UniProt Q8NNF6 1-922) (enzyme)
